These results are taken from US20110212853A1, “NOVEL DIAGNOSTIC METHOD” (PROBIODRUG AG, priority 2010, published 2011).

One data set concerns the target MCP-1 receptors (Homo sapiens, UniProt P41597). Conditions: cited from earlier work.
The test system of another data set is human THP-1 monocytes. Nature of the data set: TransWell chemotaxis assay. Format: cell-based. Conditions: for MCP-1 concentrations needed to elicit the maximum response: after incubation with human DP4, with (pGlu^1) or without (Gln^1) QC pre-incubation, FIG. 12; for influence of pGlu-formation at the N-terminus on chemotactic potency: compared to the respective glutamine-precursors, FIG. 11; for chemotactic potency of N-truncated DP4 cleavage products: truncation by 2 amino acids, FIG. 13. As for the experimental part: The chemotaxis assay was performed using 24 well TransWell plates with a pore size of 5 μm (Corning). THP-1 cells were suspended in RPMI1640 in a concentration of 1*10^6 cells/100 μl and applied in 100 μl aliquots to the upper chamber. Cells were allowed to migrate towards the chemoattractant for 2 h at 37° C. Subsequently, cells from the upper chamber were discarded and the lower chamber was mixed with 50 μl 70 mM EDTA in PBS and incubated for 15 min at 37° C. to release cells attached to the membrane. Afterwards, cells migrated to the lower chamber were counted using a cell counter system (Schärfe System). The chemotactic index was calculated by dividing cells migrated to the stimulus from cells migrated to the negative control.
MCP-1 starting with glutamine 1 (Gln^1-MCP-1) (Peprotech) was incubated with recombinant human QC to generate pGlu^1-MCP-1, or with human recombinant DP4 to generate Asp^3-MCP-1. Concentrations of 1, 5, 10, 50, 100, 500 and 1000 ng/ml of the generated MCP-1 variants were tested using the THP-1 chemotaxis assay (n=3).
MCP-1 with N-terminal glutamine (Gln^1-MCP-1) (Peprotech) was incubated with recombinant human QC and DP4 (Gln^1-MCP-1+QC+DP4), human recombinant DP4 alone (Gln^1-MCP+DP4) and with recombinant human QC in combination with 10 μM of QC-inhibitor 1-(3-(1H-imidazol-1-yl)propyl)-3-(3,4-dimethoxyphenyl)thiourea hydrochloride and DP4 (Gln^1-MCP-1+QC+QCI+DP4). Concentrations of 1, 5, 10, 50, 100, 500 and 1000 ng/ml of generated MCP-1 variants were tested using chemotaxis assay (n=3).
Concentrations of 1, 5, 10, 50, 100, 500 and 1000 ng/ml of a particular MCP were tested using chemotaxis assay (n=3).
For the generation of the DP4 cleavage product, the respective MCPs were incubated with human recombinant DP4 at a 1:100 dilution for 2 h at 30° C. prior to assay. Concentrations of 1, 5, 10, 50, 100, 500 and 1000 ng/ml of a particular MCP were tested using chemotaxis assay (n=3).

Data set [1] in a line: N-terminal degradation of human MCP-1 in human serum, Maldi-TOF mass spectrometry. The data set is classed as in vitro ADME. The method, then: (§1) For cyclization of the N-terminal glutamine residue into pyroglutamate, MCP-1 was incubated with recombinant human QC for 3 h prior to assay start. In addition, Gln^1-MCP-1 was incubated in human serum in the presence of 9.6 μM DP4 Inhibitor Isoleucyl-Thiazolidide (P32/98) for 24 h (C). The cleavage products were analyzed after 0 min, 10 min, 30 min, 1 h, 2 h, 3 h 5 h and 7 h for Gln^1-MCP-1, 0 min, 30 min, 1 h, 2 h, 3 h 5 h, 7 h and 24 h for pGlu^1-MCP-1 and 0 min, 1 h, 2 h, 3 h, 5 h, 7 h and 24 h for Gln^1-MCP-1 in combination with Isoleucyl-Thiazolidide using Maldi-TOF mass spectrometry.
Matrix-assisted laser desorption/ionization mass spectrometry was carried out using the Voyager De-Pro (Applied Biosystems, Darmstadt) with a linear time of flight analyzer. The instrument was equipped with a 337 nm nitrogen laser, a potential acceleration source and a 1.4 m flight tube. Detector operation was in the positive-ion mode. Samples (5 μl) were mixed with equal volumes of the matrix solution. For matrix solution sinapinic acid was used, prepared by solving 20 mg sinapinic acid (Sigma-Aldrich) in 1 ml acetonitrile/0.1% TFA in water (1/1, v/v). A small volume (≈1 μl) of the matrix-analyte-mixture was transferred to a probe tip.
(§2) Human recombinant MCP-1 carrying an N-terminal glutaminyl residue (Peprotech) was dissolved in 25 mM Tris/HCl, pH 7.6, in a concentration of 100 μg/ml. MCP-1 was either pre-incubated with recombinant human QC (0.006 mg/ml) for 3 h at 30° C. and subsequently incubated with human serum at 30° C. or incubated with human serum without addition of QC. The cleavage products were analyzed using Maldi-TOF mass spectrometry after 0 min, 10 min, 30 min, 1 h, 2 h, 3 h 5 h and 7 h for Gln^1-MCP-1 and 0 min, 30 min, 1 h, 2 h, 3 h 5 h, 7 h and 24 h for pGlu^1-MCP-1.

Another data set has as its target recombinant human DP4 (Homo sapiens, UniProt P27487). Nature of the data set: N-terminal degradation of human MCP-2, MCP-3 and MCP-4 by DP4, Maldi-TOF mass spectrometry. Format: in vitro ADME. As to conditions: for proteolytic degradation by DP4 with N-terminal pGlu-residue: pre-incubated with recombinant human QC 3 h, then DP4; for truncation by DP4 of uncyclized variants starting with N-terminal glutamine: recombinant human DP4, 30° C. The method, then: Resulting DP4 cleavage products were analyzed using Maldi-TOF mass spectrometry after 0 min, 15 min, 30 min, 1 h, 2 h, 4 h and 24 h.
MCP-3 was either pre-incubated with recombinant human QC (0.0006 mg/ml) for 3 h at 30° C. and subsequently incubated with recombinant human DP4 (0.00012 mg/ml) at 30° C. or incubated with recombinant human DP4 (0.00012 mg/ml) without prior QC application. Resulting DP4 cleavage products were analyzed using Maldi-TOF mass spectrometry after 0 min, 15 min, 30 min, 1 h, 2 h, 4 h and 24 h.
MCP-4 was either pre-incubated with recombinant human QC (0.0006 mg/ml) for 3 h at 30° C. and subsequently incubated with recombinant human DP4 (0.00006 mg/ml) at 30° C. or incubated with recombinant human DP4 (0.00006 mg/ml) without prior QC application. Resulting DP4 cleavage products were analyzed using Maldi-TOF mass spectrometry after 0 min, 15 min, 30 min, 1 h, 2 h, 4 h and 24 h.

Data set [2] concerns DP4 or a DP4-like activity in human serum. As to the kind of experiment: Degradation of Gln1-MCP-1 in human serum in presence of DP4 inhibitor. Conditions: 9.6 μM inhibitor, 24 h, FIG. 7C. Format: biochemical. The method, then:
as §1, §2

The mark [3] stands for this setting: incubation with human serum without QC pre-incubation, FIG. 7A.

Sequence of recombinant human DP4 (P27487 whole entry, the tested form may be a part): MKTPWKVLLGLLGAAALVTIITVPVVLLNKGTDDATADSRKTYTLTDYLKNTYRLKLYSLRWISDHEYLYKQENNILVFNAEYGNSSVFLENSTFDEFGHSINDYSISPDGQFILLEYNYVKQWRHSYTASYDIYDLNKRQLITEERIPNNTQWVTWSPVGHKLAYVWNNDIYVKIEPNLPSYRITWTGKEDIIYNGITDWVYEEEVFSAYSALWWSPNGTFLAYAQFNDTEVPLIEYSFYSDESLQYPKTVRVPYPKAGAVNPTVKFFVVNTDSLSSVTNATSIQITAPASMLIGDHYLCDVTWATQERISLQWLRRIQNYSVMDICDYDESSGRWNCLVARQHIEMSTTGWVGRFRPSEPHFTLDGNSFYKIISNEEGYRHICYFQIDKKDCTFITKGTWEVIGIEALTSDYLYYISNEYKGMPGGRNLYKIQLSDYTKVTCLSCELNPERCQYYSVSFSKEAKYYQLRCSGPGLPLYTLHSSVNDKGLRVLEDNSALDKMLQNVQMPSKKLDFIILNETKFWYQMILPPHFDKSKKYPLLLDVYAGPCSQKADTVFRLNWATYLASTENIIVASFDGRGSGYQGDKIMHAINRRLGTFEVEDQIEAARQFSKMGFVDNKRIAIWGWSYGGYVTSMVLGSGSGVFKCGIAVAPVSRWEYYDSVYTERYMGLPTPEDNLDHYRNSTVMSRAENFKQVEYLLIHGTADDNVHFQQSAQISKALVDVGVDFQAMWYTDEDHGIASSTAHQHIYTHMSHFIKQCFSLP
Sequence of MCP-1 receptors (P41597 whole entry, the tested form may be a part): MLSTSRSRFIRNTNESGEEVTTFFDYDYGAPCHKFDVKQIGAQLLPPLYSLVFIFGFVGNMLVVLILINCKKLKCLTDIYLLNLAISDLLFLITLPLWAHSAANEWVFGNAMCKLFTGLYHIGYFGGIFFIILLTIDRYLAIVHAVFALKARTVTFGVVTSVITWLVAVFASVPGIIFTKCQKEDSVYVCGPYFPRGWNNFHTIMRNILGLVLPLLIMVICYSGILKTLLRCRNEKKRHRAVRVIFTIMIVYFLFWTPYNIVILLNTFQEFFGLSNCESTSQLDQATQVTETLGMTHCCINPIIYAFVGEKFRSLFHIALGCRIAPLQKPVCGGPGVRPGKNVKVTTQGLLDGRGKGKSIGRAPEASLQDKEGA

Consider “MCP-1: monocyte chemotactic protein-1, CCL2; form in the cited binding study not stated”, for which the Kd (in general, the constant that tells how readily two partners part at equilibrium) with MCP-1 receptors is 2.8 nM.

In the case of “pGlu1-MCP-1: human MCP-1 with N-terminal pyroglutamic acid, generated by incubation of Gln1-MCP-1 with recombinant human QC”, the “MCP-1 concentrations needed to elicit the maximum response” value in the data set with human THP-1 monocytes is 50 to 100 ng/mL. In addition, the “degradation in human serum” value in data set [1] (pre-incubation with human QC, chosen time-frame (24 h) and dilution of the serum, FIG. 7B) was “no degradation”.

Regarding “MCP-3: Human recombinant MCP-3 (SEQ ID NO: 12) carrying an N-terminal glutaminyl residue (Peprotech)”, in the data set with human THP-1 monocytes, the “influence of pGlu-formation at the N-terminus on chemotactic potency” value is recorded as “no influence” and the “chemotactic potency of N-truncated DP4 cleavage products” value was “partial inactivation”. In addition, in the data set with recombinant human DP4, the “proteolytic degradation by DP4 with N-terminal pGlu-residue” value was “protects” and the “truncation by DP4 of uncyclized variants starting with N-terminal glutamine” value (“truncation by DP4” below) is recorded as “readily truncated”.

For “Gln1-MCP-1: Recombinant human MCP-1(1-76) (SEQ ID NO: 1) starting with an N-terminal glutamine (Peprotech)”, the “MCP-1 concentrations needed to elicit the maximum response” value with human THP-1 monocytes was in the range of 500 to 1000 ng/mL. In data set [1] (setting [3]), the “final ratio, full-length pGlu1-MCP-1” value was roughly 40% and the “final ratio, truncated Asp3-MCP-1” value was “approx. 60%”.

As to “MCP-2: Human recombinant MCP-2 (SEQ ID NO: 11) carrying an N-terminal glutaminyl residue (Peprotech)”, in the data set on human THP-1 monocytes, the “influence of pGlu-formation at the N-terminus on chemotactic potency” value was “no influence” and the “chemotactic potency of N-truncated DP4 cleavage products” value is on record as “partial inactivation”. In addition, in the data set with recombinant human DP4, the “truncation by DP4” value is “readily truncated”.

In the case of “MCP-1, 1-10: peptide corresponding to MCP-1, 1-10 (QPDAINAPVT; UniProt P13500 24-33, looked up, fragment) [reference compound]”, the receptor-binding activities result with MCP-1 receptors was “lacked detectable receptor-binding activities”.

As for “MCP-4: Human recombinant MCP-4 (SEQ ID NO: 13) carrying an N-terminal glutaminyl residue (Peprotech)”, in the data set on human THP-1 monocytes, the “influence of pGlu-formation at the N-terminus on chemotactic potency” value is “slightly increases” and the “chemotactic potency of N-truncated DP4 cleavage products” value was “partial inactivation”. Besides, in the data set with recombinant human DP4, the “proteolytic degradation by DP4 with N-terminal pGlu-residue” value was “protects” and the “truncation by DP4” value is “readily truncated”.

For `CCC(C)C(N)C(=O)N1CCSC1` (stereo not shown) [Isoleucyl-Thiyzolidide, Isoleucyl-Thiazolidide], the “N-terminal degradation of MCP-1 in serum” value in data set [2] is reported as “prevents the N-terminal degradation”.
